These results are taken from patent publication US20220112288A1 (published 2022).

For assay [1], the target named is T1, Recombinant human CD4 (R&D Systems, Cat. 10327-CD) (human, UniProt P01730 26-390, limits assumed).
T1 construct: Bought recombinant protein; also called huCD4
Kind of assay: BLI (Octet Red384); purified antibody captured on anti-mouse IgG Fc (AMC) sensors; human CD4 as analyte at 100, 50 and 25 nM; 1:1 global fit. (Biolayer interferometry detects binding as a change in optical thickness at a sensor tip.)

For assay [2], the target named is T2, Rhesus macaque CD4-HIS (Acro Biosystems, Cat. CD4-C52H7) (rhesus macaque, UniProt P16003 26-390).
T2 construct: Bought reagent; also called Rhesus CD4; rhesus CD4-HIS; not shown: His tag
Kind of assay: BLI (Octet Red384); Ab on anti-mouse Fc (AMC) sensor; rhesus CD4-HIS as analyte.

The target in assay [3] is T3, human CD4 on cells (SKW3 cells; human PBMCs) (human, UniProt P01730 26-458).
T3 construct: whole, on cells; The SKW3 CD4 knockout cells served as the negative cell line; also called hCD4
Briefly: FACS binning on SKW3 cells after supernatant; competitor OKT4-A488; background 2163, max binding 8200.

In assay [4] the target is T3, human CD4 on cells (SKW3 cells; human …). Briefly: FACS binning on SKW3 cells after supernatant; competitor RPA-T4-PE-Dazzle 594; background 783, max binding 15000.
Assay [5] has the same target. Kind of assay: FACS confirmation, supernatant on human PBMCs, anti-mFc 647, CD4+ gate.
The target in assay [6] is T4, huCD4-HIS (human, UniProt P01730 26-390, limits assumed).
T4 construct: Named only in the head of the Ibalizumab ELISA binning column; Neither the source nor the construct limits are told in this stretch; not shown: HIS tag
Briefly: ELISA binning, competitor Ibalizumab; 100 ng/mL huCD4-HIS, anti-HIS HRP detection; background 45, max binding 3000000. For orientation: In an ELISA, binding on a coated surface is turned into a signal by an enzyme label.

In assay [7] the target is T3, human CD4 on cells (SKW3 cells; human …). Kind of assay: FACS primary screen, non-clonal supernatant; SKW3 vs SKW3 CD4 KO cells, anti-human Kappa FITC detection.
The target is the same in assay [8]. Kind of assay: FACS binning on SKW3 cells after supernatant; competitor OKT4a, anti-hu A647 secondary; background 5000, max binding 35000.
The target is the same in assay [9]. Kind of assay: FACS confirmation, supernatant on human PBMCs, anti-mFc 647.
For assay [10] the target is unchanged. Briefly: FACS confirmation, supernatant on SKW3 WT cells, anti-hu Kappa FITC; background gMFI 2500.
Assay [11] shares this target. Briefly: FACS primary screen, non-clonal supernatant; SKW3 vs SKW3 CD4 KO cells, anti-mouse Fc 647 detection.
For assay [12] the target is unchanged. Kind of assay: FACS confirmation, supernatant on SKW3 WT cells, anti-mFc 647; background gMFI 3300.
For assay [13], the target named is T5, Rhesus macaque CD4-HIS (Acro Biosystems, Cat. CD4-C52H7) (rhesus macaque, UniProt P16003 26-390).
T5 construct: Bought recombinant protein; also called Rhesus CD4; rhesus CD4-HIS; not shown: His tag
Kind of assay: BLI (Octet Red384); purified antibody captured on anti-mouse IgG Fc (AMC) sensors, rhesus CD4-HIS analyte at 100, 50, 25 nM; global 1:1 fit.

Substitutions are numbered along the chain they refer to.

B1: 75110_14P05A (antibody, V domains shown)
VH: EVQLVESGGGLVQPGGSLRLSCAASGFTFSSYDVHWVRQATGKGLEWVSTIGTAGDTYYPGSVKGRFTISRENAKNSLYLQMNSLRAGDTAVYYCARGGFYYYGMDVWGQGTTVTVSS
VL: EIVLTQSPGTLSLSPGERATLSCRASQSVSSSYLAWYQQKPGQTPRLLIYGASSRATGIPDRFSGSGSGTDFTLTISRLEPEDFAVFYCQQSGSSPFTFGPGTKVDVK
notes: Tested as AlivaMab Mouse (AMM) antibody purified from hybridoma supernatant and captured through its mouse IgG Fc; also called ADS75110 purified AMM Ab 75110_14P05A; Sib1.10
Regarding B1, in assay [1], the dissociation constant Kd – broadly, the constant that tells how readily two partners part at equilibrium – is below 1 pM; the koff (in general, the first-order rate constant of dissociation) was below 1e-07 s⁻¹; the association rate constant (kon) (commonly the second-order rate constant of association) stood at 95000 M⁻¹ s⁻¹.

B2: 75110_08H11A (antibody, V domains shown)
VH: B1 VH with V34M, F100Y, Y101S
VL: B1 VL with R24G, S32T, T44A, F87Y, S92F, V107I
notes: Tested as antibody purified from AlivaMab Mouse hybridoma supernatant (human variable domains, kappa; mouse Fc, captured on anti-mouse IgG Fc sensors); also called ADS75110 purified AMM Ab
Turning to B2, the binding result in assay [2] is reported as “no binding (tested: 100 nM (highest of 100, 50, 25 nM))”.

B3: 75110_08H06A (antibody, V domains shown)
VH: B1 VH with S31N, V34M, F100Y, Y101D
VL: B1 VL with V29I, S30T, S32I, Q38R, T44A, F87Y, S92Y, V107I
notes: as for B2
Consider B3, for which, in [2], the binding result is given as “no binding (tested: 100 nM (highest of 100, 50, 25 nM))”.

B4: 75110_14H13A (antibody, V domains shown)
VH: B1 VH with S31N, V34M, E72K, N83I, F100D
VL: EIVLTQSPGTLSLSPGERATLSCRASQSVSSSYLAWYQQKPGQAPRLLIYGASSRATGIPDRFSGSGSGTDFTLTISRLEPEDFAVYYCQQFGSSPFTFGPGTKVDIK
notes: as for B2
On to B4, for which, in [2], the binding result is listed as “no binding (tested: 100 nM (highest of 100, 50, 25 nM))”.

B5: 75110_14G10A (antibody, V domains shown)
VH: EVQLVESGGGLVKPGGSLRLSCAASGFTFSSYSMNWVRQAPGKGLEWVSFISSSSSYIYYADSVKGRFTISRDNAKNSLYLQMNSLRAEDTAVYYCARERGDDYGDYEGAFDIWGQGTMVTVSS
VL: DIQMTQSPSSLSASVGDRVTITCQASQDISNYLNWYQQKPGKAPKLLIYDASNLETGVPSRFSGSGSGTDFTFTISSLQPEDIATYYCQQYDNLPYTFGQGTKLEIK
notes: as for B2
Regarding B5, in assay [2], the binding result is “no binding (tested: 100 nM (highest of 100, 50, 25 nM))”.

B6: 75110_01H18A (antibody, V domains shown)
VH: QVQLQQWGAGLLKPSETLSLTCAVYGGSFSGYYWSWIRQSPGKGLEWIGEINQSGSTNYNPSLKSRVTISVDTSKNQFSLKLSSVTAADTAVYYCARVINWFDSWGQGTLVTVSS
VL: DIQMTQSPSSVSASVGDRVTITCRASQGISSWLAWYQQKPGKAPKLLIYAASSFQSGVPSRFSGSGSGTDFTLTISSLQTEDFATYYCQQANSFPYTFGQGTRLEIK
notes: Tested as non-clonal hybridoma supernatant from AlivaMab Mouse Kappa mice, detected with anti-mouse Fc and anti-human Kappa
Take B6: in [3], the “OKT4 A488 signal (FACS binning)” value was 9840. The “RPA-T4-PE-Dazzle 594 signal (FACS binning)” value in assay [4] is 2830. In addition, the “PBMCs CD4+ gate RL1 Binding” value in assay [5] was determined as 263000. Besides, the “Ibalizumab ELISA binning signal” value in assay [6] is 385000. The “SKW3 WT vs KO, anti-hKappa-FITC (ratio)” value in assay [7] worked out at 1.6 ratio. Further, the “OKT4a anti-hu A647 signal (FACS binning)” value in assay [8] stood at 37200. The “PBMCs CD4+ percent bound of viable” value in assay [9] amounted to 32%. Further, the “gMFI, SKW3 WT anti-hu Kappa FITC” value in assay [10] was found to be 4930 gMFI. In addition, the “SKW3 WT vs KO, anti-mFc-647 (ratio)” value in assay [11] was determined as 3.6 ratio. Moreover, the “gMFI, SKW3 WT anti-mFc 647” value in assay [12] was 19000 gMFI.

B7: 75110_10K21A (antibody, V domains shown)
VH: EVQLVESGGGLVQPGGSLRLSCAASGFTFSSYWMTWVRQAPGKGLEWVANIKQDGSEKYYVDSVKGRFTISRDNAKNSLYLQMNSLRAEDTAVYYCVRDRYDALDIWGQGTMVTVSS
VL: AIQMTQSPSSLSASVGDRVTITCRASQGIRNDLNWYQQKPGKAPKLLIYAASSLQSGVPSRFSGSGSGTDFTLTISSLQAEDFATYYCLKDYNYPYTFGQGTKLEIK
notes: as for B6
For the molecule B7, in assay [3], the “OKT4 A488 signal (FACS binning)” value amounted to 9980. Also, the “RPA-T4-PE-Dazzle 594 signal (FACS binning)” value in assay [4] was 2590. For the same molecule, in assay [5], the “PBMCs CD4+ gate RL1 Binding” value was 224000. The “Ibalizumab ELISA binning signal” value in assay [6] worked out at 293000. Also, in [7], the “SKW3 WT vs KO, anti-hKappa-FITC (ratio)” value worked out at 1.7 ratio. Besides, the “OKT4a anti-hu A647 signal (FACS binning)” value in assay [8] stood at 34100. Further, in assay [9], the “PBMCs CD4+ percent bound of viable” value turned out to be 32%. Also, the “gMFI, SKW3 WT anti-hu Kappa FITC” value in assay [10] amounted to 5850 gMFI. The “SKW3 WT vs KO, anti-mFc-647 (ratio)” value in assay [11] is 2.6 ratio. For the same molecule, the “gMFI, SKW3 WT anti-mFc 647” value in assay [12] amounted to 19200 gMFI.

B8: 75110_14P08A (antibody, V domains shown)
VH: QVQLQESGPGLVKSSETLSLTCTDSGDSIRSYYWNWIRQPAGKGLEWIGRIYASGSTNYNPSLKSRVIMSADTSKNRFSLKLSSVTAADTAVYYCARDGGVGDSLDYWGQGTLVTVSS
VL: DIVMTQTPLSLPVTPGEPASISCRSSQSLLDSDDGNTYLDWYLQKPGQSPQLLIYTLSYRASGVPDRFSGSGSGTDFTLKISRVEAEDVGVYYCMQRIEFPFTFGPGTKVDIK
notes: Tested as AlivaMab Mouse (AMM) antibody purified from hybridoma supernatant and captured through its mouse IgG Fc; also called ADS75110 purified AMM Ab 75110_14P08A; Sib8.2
On to B8, for which, in assay [1], the Kd is 330 pM, the koff is 3.2e-05 s⁻¹ and the on-rate (kon) amounted to 96000 M⁻¹ s⁻¹.

B9: 75110_14P08A (antibody, V domains shown)
VH: B8 VH
VL: B8 VL
notes: Tested as antibody purified from the AlivaMab Mouse hybridoma supernatant (chimeric AlivaMab; captured by anti-mouse IgG Fc sensors, human kappa light chain); also called ADS75110 purified AMM Ab 75110_14P08A; Sib8.2
In [13], B9 yielded an equilibrium dissociation constant (Kd) of 8800 pM, a koff of 0.00066 s⁻¹ and an association rate constant (kon) of 75000 M⁻¹ s⁻¹.

B10: 75110_07J24A (antibody, V domains shown)
VH: QAQLQESGPGLVKPSETLSLTCTVSGGSISSYYYNWIRQPAGKGLEWIGRIYTSGRTDYNPSLKSRVTMSADTSKNQFSLKLSSVTAADTAVYYCARDEGPTDAFDIWGQGTMVTVSS
VL: B8 VL with Q51H, T75S
notes: as for B2
For the molecule B10, the binding result in assay [2] is “no binding (tested: 100 nM (highest of 100, 50, 25 nM))”.
